Data reported in patent US20130274124A1.

Experiments:
Assay in all cases: cell-based or functional assay
[1] = target: collagen II/galectin-4 (hit ECM combination) (human) (UniProt P02458)
[2] = target: collagen IV/galectin-8 (hit ECM combination) (human) (UniProt P02462)
[3] = target: collagen I/laminin (hit ECM combination) (human) (UniProt P02452)

Measured: reduction of cellular attachment after blocking the integrin with an antibody

Sequence of collagen I/laminin (hit ECM combination) (human) (P02452 162-1218 limits assumed, chain 1 of 2): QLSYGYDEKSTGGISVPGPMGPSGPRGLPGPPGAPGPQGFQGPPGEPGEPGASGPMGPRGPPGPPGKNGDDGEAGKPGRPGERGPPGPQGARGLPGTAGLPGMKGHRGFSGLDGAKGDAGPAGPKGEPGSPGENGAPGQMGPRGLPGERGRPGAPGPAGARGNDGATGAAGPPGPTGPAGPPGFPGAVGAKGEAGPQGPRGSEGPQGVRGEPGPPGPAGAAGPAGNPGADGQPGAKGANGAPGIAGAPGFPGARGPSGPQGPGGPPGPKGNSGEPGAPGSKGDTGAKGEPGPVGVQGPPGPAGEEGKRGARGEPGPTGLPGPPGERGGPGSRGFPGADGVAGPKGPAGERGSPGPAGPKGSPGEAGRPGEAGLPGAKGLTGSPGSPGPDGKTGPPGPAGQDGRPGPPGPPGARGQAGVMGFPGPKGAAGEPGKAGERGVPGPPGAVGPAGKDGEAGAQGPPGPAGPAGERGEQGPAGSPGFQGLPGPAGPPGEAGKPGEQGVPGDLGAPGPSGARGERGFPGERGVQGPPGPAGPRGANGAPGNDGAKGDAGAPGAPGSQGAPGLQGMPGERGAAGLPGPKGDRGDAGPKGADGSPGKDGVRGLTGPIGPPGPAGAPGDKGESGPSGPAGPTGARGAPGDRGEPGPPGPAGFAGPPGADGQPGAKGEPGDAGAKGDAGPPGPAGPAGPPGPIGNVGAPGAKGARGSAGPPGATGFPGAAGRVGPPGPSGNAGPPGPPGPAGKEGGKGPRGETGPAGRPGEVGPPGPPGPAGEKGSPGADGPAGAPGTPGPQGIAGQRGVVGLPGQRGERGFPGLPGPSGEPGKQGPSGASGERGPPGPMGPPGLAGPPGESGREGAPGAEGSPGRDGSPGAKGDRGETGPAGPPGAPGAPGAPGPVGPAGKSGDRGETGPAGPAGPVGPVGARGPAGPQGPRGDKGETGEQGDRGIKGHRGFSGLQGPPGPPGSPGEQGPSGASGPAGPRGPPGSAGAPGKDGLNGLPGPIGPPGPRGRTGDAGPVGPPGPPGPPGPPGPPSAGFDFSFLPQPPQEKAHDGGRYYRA
Sequence of collagen I/laminin (hit ECM combination) (human) (chain, as listed by the source limits assumed, chain 2 of 2): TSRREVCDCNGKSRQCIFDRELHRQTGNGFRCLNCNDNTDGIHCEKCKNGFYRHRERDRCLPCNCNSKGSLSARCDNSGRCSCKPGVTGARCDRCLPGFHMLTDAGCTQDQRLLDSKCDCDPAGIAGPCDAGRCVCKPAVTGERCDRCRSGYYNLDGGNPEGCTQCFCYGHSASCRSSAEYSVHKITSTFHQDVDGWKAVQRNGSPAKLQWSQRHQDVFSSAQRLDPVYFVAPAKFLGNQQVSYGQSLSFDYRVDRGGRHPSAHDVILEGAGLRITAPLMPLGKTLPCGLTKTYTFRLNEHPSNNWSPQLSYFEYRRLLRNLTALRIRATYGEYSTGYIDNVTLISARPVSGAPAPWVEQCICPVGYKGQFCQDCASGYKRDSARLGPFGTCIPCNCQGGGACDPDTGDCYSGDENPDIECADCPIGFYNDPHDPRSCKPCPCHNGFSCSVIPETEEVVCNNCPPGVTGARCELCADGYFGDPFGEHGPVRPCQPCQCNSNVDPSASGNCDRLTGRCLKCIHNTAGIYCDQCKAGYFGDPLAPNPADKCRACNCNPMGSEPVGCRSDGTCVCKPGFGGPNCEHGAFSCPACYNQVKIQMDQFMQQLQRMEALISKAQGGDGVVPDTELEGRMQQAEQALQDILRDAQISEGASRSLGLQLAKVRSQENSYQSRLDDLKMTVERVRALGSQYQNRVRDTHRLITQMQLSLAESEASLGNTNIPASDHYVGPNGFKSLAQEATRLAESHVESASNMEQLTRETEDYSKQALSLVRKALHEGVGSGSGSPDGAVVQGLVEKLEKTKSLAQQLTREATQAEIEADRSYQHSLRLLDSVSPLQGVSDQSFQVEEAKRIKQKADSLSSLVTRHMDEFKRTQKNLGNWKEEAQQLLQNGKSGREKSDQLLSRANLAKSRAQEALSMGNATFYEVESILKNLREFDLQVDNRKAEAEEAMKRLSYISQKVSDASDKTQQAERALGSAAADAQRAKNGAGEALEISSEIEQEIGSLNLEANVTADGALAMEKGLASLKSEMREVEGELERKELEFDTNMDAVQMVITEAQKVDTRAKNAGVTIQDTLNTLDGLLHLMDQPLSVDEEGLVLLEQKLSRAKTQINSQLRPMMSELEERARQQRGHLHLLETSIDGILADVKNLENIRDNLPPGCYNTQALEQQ
Sequence of collagen II/galectin-4 (hit ECM combination) (human) (P02458 other isoform, or with tags, fused parts or gaps limits assumed, chain 1 of 2): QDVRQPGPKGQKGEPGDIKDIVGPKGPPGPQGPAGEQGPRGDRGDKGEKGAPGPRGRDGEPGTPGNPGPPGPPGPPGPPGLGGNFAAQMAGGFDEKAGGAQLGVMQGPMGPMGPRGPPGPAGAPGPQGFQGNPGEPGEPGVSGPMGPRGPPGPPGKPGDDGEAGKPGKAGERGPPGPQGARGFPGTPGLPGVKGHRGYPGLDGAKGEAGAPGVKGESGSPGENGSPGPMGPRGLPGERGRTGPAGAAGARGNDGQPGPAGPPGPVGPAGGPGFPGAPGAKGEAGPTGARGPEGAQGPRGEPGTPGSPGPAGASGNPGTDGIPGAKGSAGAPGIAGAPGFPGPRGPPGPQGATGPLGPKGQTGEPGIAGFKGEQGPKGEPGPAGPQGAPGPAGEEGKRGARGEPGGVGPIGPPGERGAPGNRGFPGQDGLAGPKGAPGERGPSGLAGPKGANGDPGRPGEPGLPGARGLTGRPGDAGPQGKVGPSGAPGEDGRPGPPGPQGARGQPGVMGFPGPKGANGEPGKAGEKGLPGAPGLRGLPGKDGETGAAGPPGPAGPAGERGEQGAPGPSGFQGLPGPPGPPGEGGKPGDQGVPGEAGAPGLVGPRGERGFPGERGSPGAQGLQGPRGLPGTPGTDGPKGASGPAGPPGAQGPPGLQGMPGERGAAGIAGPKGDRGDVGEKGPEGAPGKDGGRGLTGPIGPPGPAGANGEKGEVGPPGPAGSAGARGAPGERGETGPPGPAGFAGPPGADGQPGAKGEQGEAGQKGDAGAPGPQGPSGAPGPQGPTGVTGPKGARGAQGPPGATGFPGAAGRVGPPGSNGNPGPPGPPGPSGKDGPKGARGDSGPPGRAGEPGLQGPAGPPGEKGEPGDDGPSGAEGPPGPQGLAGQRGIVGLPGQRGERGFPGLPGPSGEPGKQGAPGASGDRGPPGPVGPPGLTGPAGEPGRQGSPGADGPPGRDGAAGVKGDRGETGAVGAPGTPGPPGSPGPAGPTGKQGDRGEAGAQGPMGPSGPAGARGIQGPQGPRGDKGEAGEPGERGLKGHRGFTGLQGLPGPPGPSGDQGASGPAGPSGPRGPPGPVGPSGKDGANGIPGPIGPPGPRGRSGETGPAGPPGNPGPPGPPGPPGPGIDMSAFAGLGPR
Sequence of collagen II/galectin-4 (hit ECM combination) (human) (chain, as listed by the source limits assumed, chain 2 of 2): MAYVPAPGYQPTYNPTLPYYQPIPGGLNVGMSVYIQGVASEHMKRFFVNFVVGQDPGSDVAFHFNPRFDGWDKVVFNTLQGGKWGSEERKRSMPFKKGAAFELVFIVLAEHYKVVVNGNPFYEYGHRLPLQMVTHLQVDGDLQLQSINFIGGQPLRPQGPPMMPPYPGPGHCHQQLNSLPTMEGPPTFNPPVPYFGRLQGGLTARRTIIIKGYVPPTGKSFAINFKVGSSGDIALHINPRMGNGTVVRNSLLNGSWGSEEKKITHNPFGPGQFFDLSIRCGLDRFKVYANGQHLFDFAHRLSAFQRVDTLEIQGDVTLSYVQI

α1 integrin (from UniProt P56199 29-1179) (receptor)
50%: all assays above
